T1: eIF4E-Flag (mRNA cap binding protein) (Saccharomyces cerevisiae, UniProt P07260 1-213)
T1 construct: bait of the one-step Flag pull down; also called eIF4-Flag; source: S. cerevisiae, expressed from plasmid YC801 (eIF4E-Flag URA3), in cell extract
T1 sequence (looked up): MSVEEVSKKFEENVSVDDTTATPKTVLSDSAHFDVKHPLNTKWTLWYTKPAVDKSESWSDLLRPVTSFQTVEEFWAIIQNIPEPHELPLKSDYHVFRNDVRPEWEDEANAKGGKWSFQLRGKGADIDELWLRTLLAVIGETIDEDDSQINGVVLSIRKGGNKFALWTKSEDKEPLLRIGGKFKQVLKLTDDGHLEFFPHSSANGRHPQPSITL

T2: Flag-PAB1 (poly(A)-binding protein) (Saccharomyces cerevisiae, UniProt P04147 1-577)
T2 construct: bait of the one-step Flag pull down; also called PAB1-Flag; source: S. cerevisiae, expressed from plasmid YC776 (Flag-PAB1 URA3), in cell extract
T2 sequence (looked up): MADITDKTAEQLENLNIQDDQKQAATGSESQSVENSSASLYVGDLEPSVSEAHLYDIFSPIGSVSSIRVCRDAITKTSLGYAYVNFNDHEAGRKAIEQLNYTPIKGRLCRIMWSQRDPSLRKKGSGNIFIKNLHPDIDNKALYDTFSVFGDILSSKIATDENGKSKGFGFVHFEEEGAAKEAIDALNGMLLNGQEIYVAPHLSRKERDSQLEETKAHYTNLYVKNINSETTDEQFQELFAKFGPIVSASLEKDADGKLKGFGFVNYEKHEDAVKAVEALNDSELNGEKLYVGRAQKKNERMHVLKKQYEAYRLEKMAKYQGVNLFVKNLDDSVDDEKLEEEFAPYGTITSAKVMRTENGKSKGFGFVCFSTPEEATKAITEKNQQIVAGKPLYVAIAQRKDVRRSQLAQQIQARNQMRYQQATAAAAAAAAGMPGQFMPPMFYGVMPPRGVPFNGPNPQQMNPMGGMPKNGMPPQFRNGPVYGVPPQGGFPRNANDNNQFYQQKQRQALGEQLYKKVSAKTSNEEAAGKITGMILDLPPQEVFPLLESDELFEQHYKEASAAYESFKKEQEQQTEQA

B1: RPL6B-GFP (natural protein, Saccharomyces cerevisiae, UniProt P05739 1-176, looked up)
chain: MTAQQAPKWYPSEDVAAPKKTRKAVRPQKLRASLVPGTVLILLAGRFRGKRVVYLKHLEDNTLLVTGPFKVNGVPLRRVNARYVIATSTKVSVEGVNVEKFNVEYFAKEKLTKKEKKEANLFPEQQTKEIKTERVEDQKVVDKALLAEIKKTPLLKQYLSASFSLKNGDKPHLLKF
notes: large ribosomal subunit protein RPL6B, Saccharomyces cerevisiae; part of the 60S ribosomal subunit in the extract; source: S. cerevisiae strain carrying the GFP fusion, in cell extract
B2: PAB1, GFP tagged (natural protein, Saccharomyces cerevisiae, UniProt P04147 1-577, looked up)
chain: T2 sequence (looked up)
notes: source: S. cerevisiae strain carrying the GFP fusion, in cell extract
B3: eIF4G1, GFP tagged (natural protein, Saccharomyces cerevisiae, UniProt P39935 1-952, looked up)
chain: MTDETAHPTQSASKQESAALKQTGDDQQESQQQRGYTNYNNGSNYTQKKPYNSNRPHQQRGGKFGPNRYNNRGNYNGGGSFRGGHMGANSSNVPWTGYYNNYPVYYQPQQMAAAGSAPANPIPVEEKSPVPTKIEITTKSGEHLDLKEQHKAKLQSQERSTVSPQPESKLKETSDSTSTSTPTPTPSTNDSKASSEENISEAEKTRRNFIEQVKLRKAALEKKRKEQLEGSSGNNNIPMKTTPENVEEKGSDKPEVTEKTKPAEEKSAEPEVKQETPAEEGEQGEKGQIKEESTPKVLTFAERLKLKKQQKEREEKTEGKENKEVPVQEETKSAIESAPVPPSEQVKEETEVAETEQSNIDESATTPAIPTKSDEAEAEVEAEAGDAGTKIGLEAEIETTTDETDDGTNTVSHILNVLKDATPIEDVFSFNYPEGIEGPDIKYKKEHVKYTYGPTFLLQFKDKLNVKADAEWVQSTASKIVIPPGMGRGNRSRDSGRFGNNSSRGHDFRNTSVRNMDDRANSRTSSKRRSKRMNDDRRSNRSYTSRRDRERGSYRNEEKREDDKPKEEVAPLVPSANRWVPKFKSKKTEKKLAPDGKTELLDKDEVERKMKSLLNKLTLEMFDAISSEILAIANISVWETNGETLKAVIEQIFLKACDEPHWSSMYAQLCGKVVKELNPDITDETNEGKTGPKLVLHYLVARCHAEFDKGWTDKLPTNEDGTPLEPEMMSEEYYAAASAKRRGLGLVRFIGFLYRLNLLTGKMMFECFRRLMKDLTDSPSEETLESVVELLNTVGEQFETDSFRTGQATLEGSQLLDSLFGILDNIIQTAKISSRIKFKLIDIKELRHDKNWNSDKKDNGPKTIQQIHEEEERQRQLKNNSRSNSRRTNNSSNRHSFRRDAPPASKDSFITTRTYSQRNSQRAPPPKEEPAAPTSTATNMFSALMGESDDEE
notes: eIF4G1, Saccharomyces cerevisiae; source: S. cerevisiae strain carrying the GFP fusion, in cell extract
B4: translation termination factor eRF1 (natural protein, Saccharomyces cerevisiae, UniProt P12385 1-437, looked up)
chain: MDNEVEKNIEIWKVKKLVQSLEKARGNGTSMISLVIPPKGQIPLYQKMLTDEYGTASNIKSRVNRLSVLSAITSTQQKLKLYNTLPKNGLVLYCGDIITEDGKEKKVTFDIEPYKPINTSLYLCDNKFHTEVLSELLQADDKFGFIVMDGQGTLFGSVSGNTRTVLHKFTVDLPKKHGRGGQSALRFARLREEKRHNYVRKVAEVAVQNFITNDKVNVKGLILAGSADFKTDLAKSELFDPRLACKVISIVDVSYGGENGFNQAIELSAEALANVKYVQEKKLLEAYFDEISQDTGKFCYGIDDTLKALDLGAVEKLIVFENLETIRYTFKDAEDNEVIKFAEPEAKDKSFAIDKATGQEMDVVSEEPLIEWLAANYKNFGATLEFITDKSSEGAQFVTGFGGIGAMLRYKVNFEQLVDESEDEYYDEDEGSDYDFI
notes: translation termination factor eRF1, Saccharomyces cerevisiae; source: S. cerevisiae, in cell extract
B5: eIF4G2-GFP (natural protein, Saccharomyces cerevisiae, UniProt P39936 1-914, looked up)
chain: MTDQRGPPPPHPQQANGYKKFPPHDNQYSGANNSQPNNHYNENLYSAREPHNNKQYQSKNGKYGTNKYNNRNNSQGNAQYYNNRFNNGYRLNNNDYNPAMLPGMQWPANYYAPQMYYIPQQMVPVASPPYTHQPLNTNPEPPSTPKTTKIEITTKTGERLNLKKFHEEKKASKGEEKNDGVEQKSKSGTPFEKEATPVLPANEAVKDTLTETSNEKSTSEAENTKRLFLEQVRLRKAAMERKKNGLISETEKKQETSNHDNTDTTKPNSVIESEPIKEAPKPTGEANEVVIDGKSGASVKTPQHVTGSVTKSVTFNEPENESSSQDVDELVKDDDTTEISDTTGGKTVNKSDDETINSVITTEENTVKETEPSTSDIEMPTVSQLLETLGKAQPISDIYEFAYPENVERPDIKYKKPSVKYTYGPTFLLQFKDKLKFRPDPAWVEAVSSKIVIPPHIARNKPKDSGRFGGDFRSPSMRGMDHTSSSRVSSKRRSKRMGDDRRSNRGYTSRKDREKAAEKAEEQAPKEEIAPLVPSANRWIPKSRVKKTEKKLAPDGKTELFDKEEVERKMKSLLNKLTLEMFDSISSEILDIANQSKWEDDGETLKIVIEQIFHKACDEPHWSSMYAQLCGKVVKDLDPNIKDKENEGKNGPKLVLHYLVARCHEEFEKGWADKLPAGEDGNPLEPEMMSDEYYIAAAAKRRGLGLVRFIGYLYCLNLLTGKMMFECFRRLMKDLNNDPSEETLESVIELLNTVGEQFEHDKFVTPQATLEGSVLLDNLFMLLQHIIDGGTISNRIKFKLIDVKELREIKHWNSAKKDAGPKTIQQIHQEEEQLRQKKNSQRSNSRFNNHNQSNSNRYSSNRRNMQNTQRDSFASTKTGSFRNNQRNARKVEEVSQAPRANMFDALMNNDGDSD
notes: eIF4G2, Saccharomyces cerevisiae; also called TIF4632-GFP; source: S. cerevisiae strain RP2384 (TIF4632-GFP::G418), in cell extract
B6: eIF4E, GFP tagged (natural protein, Saccharomyces cerevisiae, UniProt P07260 1-213, looked up)
chain: T1 sequence (looked up)
notes: as for B2

Experiments:
Conditions in all cases: partners not purified
[1] = biological target: T1, eIF4E-Flag (mRNA cap binding protein); experiment: co-IP + AUC; one-step Flag pull down of eIF4E-Flag from yeast cell extracts (cycloheximide added before lysis); Flag eluate analysed by AU-FDS for the GFP tagged protein, 20 °C, 15,000 rpm; cells on glucose or glucose depleted 10 min
[2] = biological target: T1, eIF4E-Flag (mRNA cap binding protein); experiment: co-IP + AUC; stoichiometric analysis: eIF4E-Flag purified material split and run at the same time by AU-FDS (GFP protein) and AU-A230 (total material); standards STM1-GFP and RPS4B-GFP; values relative to 100 mRNA bound by ribosomes; cells on glucose
[3] = biological target: T2, Flag-PAB1 (poly(A)-binding protein); experiment: co-IP + AUC; stoichiometric analysis: Flag-PAB1 purified material split and run at the same time by AU-FDS (GFP protein) and AU-A230 (total material); standards STM1-GFP and RPS4B-GFP; values relative to 100 mRNA bound by ribosomes; cells on glucose, 30 °C to 46 °C 1 min, or glucose depleted 10 min and added back 1 min
[4] = biological target: T2, Flag-PAB1 (poly(A)-binding protein); experiment: as above; remark: listed apart in the source
[5] = biological target: T2, Flag-PAB1 (poly(A)-binding protein); experiment: co-IP + AUC; one-step Flag pull down of Flag-PAB1 from yeast cell extracts (cycloheximide added before lysis); Flag eluate analysed by AU-FDS for the GFP tagged protein, 20 °C, 15,000 rpm; cells on glucose, glucose depleted 10 min, glucose added back 1 min, or 30 °C to 46 °C 1 min

Binder | fold change of abundance in the 57S complex, glucose depleted against glucose [1] | abundance in the eIF4E-Flag 39S complex (Glc+) [2] | abundance in the eIF4E-Flag 57S complex (Glc+) [2] | abundance in the Flag-PAB1 39S complex (Glc+) [3] | abundance in the Flag-PAB1 57S complex (Glc+) [3] | abundance in the Flag-PAB1 39S complex (30 °C to 46 °C 1 min) [4] | abundance in the Flag-PAB1 39S complex (Glu + − 10 min + 1 min) [4] | abundance in the Flag-PAB1 57S complex (30 °C to 46 °C 1 min) [4] | abundance in the Flag-PAB1 57S complex (Glu + − 10 min +1 min) [4] | fold change of abundance in the 77S complex, glucose depleted 10 min against glucose [5] | fold change of association with the 77S complex, 46 °C 1 min against 30 °C [5]
B1 | 1.8 fold |  |  |  |  |  |  |  |  |  | 
B2 |  | 42 ± 9.1 relative to 100 mRNA | 26 ± 3.7 relative to 100 mRNA |  |  |  |  |  |  |  | 
B3 |  | 88 ± 12 relative to 100 mRNA | 71 ± 8.6 relative to 100 mRNA | 13 ± 2.3 relative to 100 mRNA | 6.4 ± 0.91 relative to 100 mRNA | 7.9 ± 1.7 relative to 100 mRNA | 8.8 ± 1.6 relative to 100 mRNA | 3 ± 2.2 relative to 100 mRNA | 5.3 ± 1.1 relative to 100 mRNA |  | 
B4 |  |  |  |  |  |  |  |  |  | 4 fold | 2 fold
B5 |  | 29 ± 5.4 relative to 100 mRNA | 32 ± 11 relative to 100 mRNA | 8.3 ± 3.4 relative to 100 mRNA | 3.5 ± 1.4 relative to 100 mRNA | 12 ± 8.1 relative to 100 mRNA | 5.3 ± 2.7 relative to 100 mRNA | 3.8 ± 2.3 relative to 100 mRNA | 3.2 ± 0.45 relative to 100 mRNA |  | 
B6 |  |  |  | 28 ± 9.5 relative to 100 mRNA | 14 ± 2.9 relative to 100 mRNA | 20 ± 2.5 relative to 100 mRNA | 14 ± 3.8 relative to 100 mRNA | 21 ± 9.4 relative to 100 mRNA | 5.1 ± 2.1 relative to 100 mRNA |  | 
